From patent US20070015228A1

Experiments:
[1] = molecular target: human CD20 (human) (UniProt P11836); assay: Scatchard analysis, iodinated RITUXAN with unlabeled RITUXAN on adherent CHO clone 4H10 cells expressing human CD20 (n=3)
[2] = molecular target: human CD20 (human) (UniProt P11836); assay: Scatchard analysis, iodinated RITUXAN with unlabeled RITUXAN on CHO clone 2H3 cells in suspension (n=3)
[3] = molecular target: human CD20 (human) (UniProt P11836); assay: Scatchard analysis, iodinated RITUXAN with unlabeled RITUXAN on adherent CHO clone 6D7 cells expressing human CD20 (n=3)
[4] = molecular target: human CD20 (human) (UniProt P11836); assay: Scatchard analysis, iodinated RITUXAN with unlabeled RITUXAN on adherent CHO clone C12M cells expressing human CD20 (n=3)
[5] = molecular target: human CD20 (human) (UniProt P11836); assay: cell ELISA on CD20-transfected CHO clone C12M, suspension format, 300,000 cells/well
[6] = molecular target: human CD20 (human) (UniProt P11836); assay: cell ELISA on CD20-transfected CHO clone 2H3, suspension format, 300,000 cells/well
[7] = molecular target: human CD20 (human) (UniProt P11836); assay: Scatchard analysis, iodinated RITUXAN with unlabeled RITUXAN on WIL2 cells in suspension (n=3)
[8] = molecular target: human CD20 (human) (UniProt P11836); assay: cell ELISA on CD20-transfected CHO clone 1H6, suspension format, 300,000 cells/well

human CD20 (human), sequence (P11836 whole entry): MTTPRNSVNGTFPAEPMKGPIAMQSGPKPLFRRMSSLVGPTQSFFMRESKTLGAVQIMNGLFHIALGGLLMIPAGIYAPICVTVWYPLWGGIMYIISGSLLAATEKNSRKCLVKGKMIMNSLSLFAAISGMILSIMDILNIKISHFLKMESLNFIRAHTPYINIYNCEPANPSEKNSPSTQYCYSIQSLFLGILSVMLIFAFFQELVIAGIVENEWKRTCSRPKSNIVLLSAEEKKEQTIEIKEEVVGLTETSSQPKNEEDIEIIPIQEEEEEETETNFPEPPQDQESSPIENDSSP

## RITUXAN® (rituximab) (antibody)
[1]
  Kd: 5.5 nM
[2]
  Kd: 8.57 nM
[3]
  Kd: 5.97 nM
[4]
  Kd: 13.7 nM
[5]
  EC50 (read off the curve): 0.2 µg/mL
[6]
  EC50 (read off the curve): 0.2 µg/mL
[7]
  Kd: 3.91 nM
[8]
  EC50 (read off the curve): 0.2 µg/mL
